Article PMC4299515

Experiments:
[1] = target: full-length HP1β (heterochromatin protein 1 beta) (UniProt P83917); test: AUC; sedimentation velocity, c(s) distribution, 8–30 μM protein, physiological ionic strength; no larger complexes than the dimer up to 30 μM
[2] = target: full-length HP1β (heterochromatin protein 1 beta) (UniProt P83917); test: AUC; sedimentation velocity at lower concentrations (two peaks in c(s)); KD from the relative molar fractions of monomer and dimer; dimer to monomers; physiological ionic strength
[3] = target: isolated chromoshadow-domain (CSD) of HP1β; test: AUC; sedimentation velocity, c(s) distribution, 8–30 μM protein, physiological ionic strength; no larger complexes than the dimer up to 30 μM

full-length HP1β (heterochromatin protein 1 beta), P83917 1-185 (natural protein; other documents disagree on this pair), sequence (P83917 whole entry): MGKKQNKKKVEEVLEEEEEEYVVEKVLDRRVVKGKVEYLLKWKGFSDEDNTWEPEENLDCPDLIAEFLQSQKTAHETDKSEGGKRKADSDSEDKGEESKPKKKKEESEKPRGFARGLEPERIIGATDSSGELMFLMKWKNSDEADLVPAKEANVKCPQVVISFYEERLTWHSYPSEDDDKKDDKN
isolated chromoshadow-domain (CSD) of HP1β (domain or fragment), sequence (P83916 whole entry, the tested form may be a part): as the sequence (P83917 whole entry) above

stoichiometry N [1]	Kd [2] [µM]	stoichiometry N [3]	Substance
2	1 to 2	–	full-length HP1β (heterochromatin protein 1 beta), P83917 1-185 (natural protein; other documents disagree on this pair)
–	–	2	isolated chromoshadow-domain (CSD) of HP1β (domain or fragment)
